Test results from patent publication US20090181003A1, “Regulation of S6 Kinsase Protein Activity and Related Methods” (priority 2005, published 2009).

Experiments:
[1] = system: recombinant S6K2; experiment: In vitro acetylation with 14C labelled acetyl coenzyme A, S6K2; assay type: biochemical; conditions: 1 μg recombinant S6K2, HAT buffer with 14C AcCoA
Procedure: (§1) In FIG. 2A, recombinant S6 kinases were acetylated in vitro using the purified acetyltransferase domain of p300 or full length PCAF and ^14C-labelled acetyl CoA. Proteins were resolved by SDS-PAGE and acetylated proteins were analysed by phosphorimaging (Bio-rad). In FIG. 2B, recombinant S6K2 or GST were subject to in vitro acetylation reactions with p300 and 14C AcCoA. Recombinant PKB/Akt, PKCa, PDK1 and PI3K (p85a/p110a) were purified using baculovirus expression system. In vitro acetylation assay was carried out as previously described. In FIG. 2D, HEK 293 cells were transfected with S6 kinases in the absence or presence of Gal4-p300 as shown. Cells were treated with medium containing either solvent control or TSA to a final concentration of 660 nM for twelve hours prior to harvesting. Recombinant S6 kinases were immunoprecipitated using the EE-antibody and acetylated S6 kinase was detected by western blotting with polyclonal acetylated lysine antibodies (Upstate). The level of immunoprecipitated S6K1 and S6K2 was analysed by reprobing the membranes with specific antibodies. The expression of Gal4-p300 was tested in total lysates using anti-Gal4 antibodies.
(§2) Since S6Ks can interact with a region within, or adjacent to the acetyltransferase domain of p300 we hypothesized that they may in fact be targeted by its enzymatic activity. […] We detected weak, but reproducible acetylation of PKCa.

[2] = molecular target: T1, S6K2 (Homo sapiens, UniProt Q9UBS0); experiment: In vitro GST pulldown of p300 GST-fusion fragments with recombinant S6K2; assay type: binding; conditions: GST fusion proteins on glutathione beads, highly purified recombinant S6K2
T1 construct: made in house; GST-p300 fragments: bacteria
Text: In FIG. 1A, S6K1 and S6K2 were immunoprecipitated from MCF-7 cells using polyclonal antibodies or pre-immune serum control. Co-immunoprecipitated p300 was detected by western blotting with specific antibody. In FIG. 1B, 293 cells were cotransfected with either EE-S6K1 and Gal4-p300 or empty vector and Gal4-p300. S6K1 was immunoprecipitated using anti-EE antibody and associated p300 was detected by western blotting with anti-Gal4 antibody. Input: approximately ten percent of soluble lysate. In FIG. 1C, NIH-3T3 cells were transfected with empty vector or EE-S6K2. Anti-EE immunoprecipitates were subjected to western blotting with anti-p300 antibody. Input: approximately one percent of soluble lysate. […] Endogenous S6K1 and S6K2 were immunoprecipitated from MCF-7 cells using polyclonal antibodies. Associated P/CAF was detected by western blotting with polyclonal antibodies (Upstate). In FIG. 1E, the full length p300 was used to produce several GST-fusion fragments as shown (Hasan et al. (2001) Mol. Cell. 7, 1221-1231). Expressed fusion proteins were coupled to glutathione beads and used in an in vitro GST pulldown assay with recombinant S6K2. After extensive washing, bound S6K2 was detected by western blotting. […]

[3] = system: recombinant S6K1; experiment: In vitro acetylation with 14C labelled acetyl coenzyme A, S6K1; assay type: biochemical; conditions: 1 μg recombinant S6K1, HAT buffer with 14C AcCoA
Procedure: as §1, §2

T1 sequence (Q9UBS0 with tags, fused parts or gaps A420V): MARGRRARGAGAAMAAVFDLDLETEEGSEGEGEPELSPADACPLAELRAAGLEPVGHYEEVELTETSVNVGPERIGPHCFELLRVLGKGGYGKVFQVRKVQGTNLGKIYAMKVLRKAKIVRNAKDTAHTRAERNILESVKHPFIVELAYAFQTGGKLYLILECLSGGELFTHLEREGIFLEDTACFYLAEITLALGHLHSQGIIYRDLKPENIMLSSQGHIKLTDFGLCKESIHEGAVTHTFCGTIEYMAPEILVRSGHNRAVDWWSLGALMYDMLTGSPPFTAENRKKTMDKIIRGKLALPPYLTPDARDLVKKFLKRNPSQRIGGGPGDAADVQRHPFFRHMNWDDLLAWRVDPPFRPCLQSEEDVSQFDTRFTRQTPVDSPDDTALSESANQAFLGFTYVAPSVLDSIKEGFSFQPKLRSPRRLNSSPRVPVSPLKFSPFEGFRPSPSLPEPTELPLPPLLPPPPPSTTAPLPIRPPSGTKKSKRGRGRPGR

- acetylation of S6K2 (14C acetyl incorporation) [1]: acetyl groups were indeed incorporated
- binding of S6K2 to p300 domains [2]: selective binding
- acetylation of S6K1 (14C acetyl incorporation) [3]: acetyl groups were indeed incorporated
B1: p300 domain 4: active domain of p300 acetyltransferase, amino acid 1,459 to 1,892 (SEQ ID NO: 6), contains part of the acetyltransferase domain (protein, listed as Homo sapiens)
chain: KPKRLQEWYKKMLDKAVSERIVHDYKDIFKQATEDRLTSAKELPYFEGDFWPNVLEESIKELEQEEEERKREENTSNESTDVTKGDSKNAKKKNNKKTSKNKSSLSRGNKKKPGMPNVSNDLSQKLYATMEKHKEVFFVIRLIAGPAANSLPPIVDPDPLIPCDLMDGRDAFLTLARDKHLEFSSLRRAQWSTMCMLVELHTQSQDRFVYTCNECKHHVETRWHCTVCEDYDLCITCYNTKNHDHKMEKLGLGLDDESNNQQAAATQSPGDSRRLSIQRCIQSLVHACQCRNANCSLPSCQKMKRVVQHTKGCKRKTNGGCPICKQLIALCCYHAKHCQENKCPVPFCLNIKQKLRQQQLQHRLQQAQMLRRRMASMQRTGVVGQQQGLPSPTPATPTTPTGQQPTTPQTPQPTSQPQPTPPNSMPPYLPRTQA
modifications: GST fusion partner
